Reference: PMC3185027, “Structural and functional roles of deamidation of N146 and/or truncation of NH2- or COOH-termini in human αB-crystallin” (Molecular Vision, 2011)
Residue numbers refer to the chain shown, from its start. Names may count otherwise.

B1: wild-type (WT) αB-crystallin (natural protein, human, UniProt P02511 1-175, looked up)
chain: MDIAIHHPWIRRPFFPFHSPSRLFDQFFGEHLLESDLFPTSTSLSPFYLRPPSFLRAPSWFDTGLSEMRLEKDRFSVNLDVKHFSPEELKVKVLGDVIEVHGKHEERQDEHGFISREFHRKYRIPADVDPLTITSSLSSDGVLTVNGPRKQVSGPERTIPITREEKPAVTAAPKK
notes: human αB-crystallin, full-length protein containing all residues from 1 to 175; Cloned in pET 100 Directional TOPO; also called His-tagged WT αB-crystallin; not shown: His6, N-terminal, kept
B2: αB N146D (deamidated αB-crystallin mutant) (natural protein, human, UniProt P02511 1-175, looked up)
chain: B1 chain with N146D
notes: human αB-crystallin, residues 1-175, Asn 146 changed to Asp to mimic deamidation; Cloned in pET 100 Directional TOPO; not shown: His6, N-terminal, kept
B3: αB-CT (COOH-terminal extension deleted αB-crystallin) (domain or fragment, human, UniProt P02511 1-150, looked up)
chain: MDIAIHHPWIRRPFFPFHSPSRLFDQFFGEHLLESDLFPTSTSLSPFYLRPPSFLRAPSWFDTGLSEMRLEKDRFSVNLDVKHFSPEELKVKVLGDVIEVHGKHEERQDEHGFISREFHRKYRIPADVDPLTITSSLSSDGVLTVNGPRK
notes: human αB-crystallin lacking the COOH-terminal extension (residues 151-175); containing residues 1-150; Cloned in pET 100 Directional TOPO; also called COOH-terminally truncated αB; not shown: His6, N-terminal, kept

Molecular target: the molecule itself
Assay: SEC-MALS; HPLC-coupled multi-angle laser light scattering (Wyatt), 18 angles; samples in 50 mM sodium phosphate pH 7.8, filtered through 0.22 μm; absolute molar mass of homomers

**Q.** Does B1 bind?
**A.** binds

**Q.** Does B2 bind?
**A.** binds

**Q.** Does B3 bind?
**A.** binds
